The target in this assay is Human mitochondrial LysRS with a C-terminal HA-tag (human) (UniProt Q15046). Nature of the assay: AlphaScreen or HTRF.

Data on two substances can be found in PMC7589778.

The substance “Integrase from HIV-2_ALL with a C-terminal His-tag (enzyme)” showed a Kd of 2.4 nM.

In turn, “Integrase from HIV-2_TRA with a C-terminal His-tag (enzyme)” gave a Kd of 3.5 nM.
